This is an account of results in US20260308278 (published 2026).

As usually defined, the Kd is the free concentration of one partner at which half of the binding sites on the other are occupied at equilibrium, for simple one-to-one binding. Higher therefore signals a looser complex.

Residue numbers refer to the chain shown, from its start.

The chains are these.
B1: P1AH1205 full Fab (antibody)
chain 1: KVQLVESGGGLVQPGGSLRLSCAASGFKWEHYAMSWVRQAPGKGLEWVGSISPRGDHKYYNTKFIDRFTISRDNDKNTLYLQMNSLRAEDTAVYYCARDWDYFDRWGQGTLVTVSSASTKGPSVFPLAPSSKSTSGGTAALGCLVKDYFPEPVTVSWNSGALTSGVHTFPAVLQSSGLYSLSSVVTVPSSSLGTQTYICNVNHKPSNTKVDKKVEPKSCD
chain 2: AIQMTQSPSSLSASVGDRVTITCQSQFWLSNYLAWYQQKPGKAPKLLIFDGDLPYERPSRFSGSGSHDEYTLTISSLQPEDFATYYCQQYREEPYTFGQGTKLEIKRTVAAPSVFIFPPSDEQLKSGTASVVCLLNNFYPREAKVQWKVDNALQSGNSQESVTEQDSKDSTYSLSSTLTLSKADYEKHKVYACEVTHQGLSSPVTKSFNRGEC
B2: P1AG9376 full IgG (antibody)
chain 1: KVQLVESGGGLVQPGGSLRLSCAASGFKWEHYAMSWVRQAPGKGLEWVGSISPRGDHKYYNTKFIDRFTISRDNDKNTLYLQMNSLRAEDTAVYYCARDWDYFDRWGQGTLVTVSSASTKGPSVFPLAPSSKSTSGGTAALGCLVKDYFPEPVTVSWNSGALTSGVHTFPAVLQSSGLYSLSSVVTVPSSSLGTQTYICNVNHKPSNTKVDKKVEPKSCDKTHTCPPCPAPEAAGGPSVFLFPPKPKDTLMASRTPEVTCVVVDVSHEDPEVKFNWYVDGVEVHNAKTKPREEQYNSTYRVVSVLTVLAQDWLNGKEYKCKVSNKALGAPIEKTISKAKGQPREPQVYTLPPSRDELTKNQVSLTCLVKGFYPSDIAVEWESNGQPENNYKTTPPVLDSDGSFFLYSKLTVDKSRWQQGNVFSCSVMHEALHNAYTQKSLSLSP
chain 2: B1 chain 2
B3: P1AG9372 full IgG (antibody)
chain 1: EVQLVESGGGLVQPGGSLRLSCAASGFRFDIYAMSWVRQAPGKGLEWVGEISPDGRTKYYNTKFIDRFTISRDNEKNTLYLQMNSLRAEDTAVYYCARDWEYFDNWGQGTLVTVSSASTKGPSVFPLAPSSKSTSGGTAALGCLVKDYFPEPVTVSWNSGALTSGVHTFPAVLQSSGLYSLSSVVTVPSSSLGTQTYICNVNHKPSNTKVDKKVEPKSCDKTHTCPPCPAPEAAGGPSVFLFPPKPKDTLMASRTPEVTCVVVDVSHEDPEVKFNWYVDGVEVHNAKTKPREEQYNSTYRVVSVLTVLAQDWLNGKEYKCKVSNKALGAPIEKTISKAKGQPREPQVYTLPPSRDELTKNQVSLTCLVKGFYPSDIAVEWESNGQPENNYKTTPPVLDSDGSFFLYSKLTVDKSRWQQGNVFSCSVMHEALHNAYTQKSLSLSP
chain 2: B1 chain 2
B4: P1AG9426 full IgG (antibody)
chain 1: B3 chain 1 with E1Q, R28K, F29Y, I31V, D54R, R56D, T57S
chain 2: B1 chain 2 with S25A, Q26S, F27Y, L53I, R57I, D68E, E93T
B5: P1AH1199 full Fab (antibody)
chain 1: B1 chain 1 with K1Q, W29Y, E30D, H31V, S50E, H57S, D75E, D101E, R105N
chain 2: B1 chain 2 with S25A, Q26S, F27Y, L53I, Y55W, R57I, D68E, E92D, E93T
B6: P1AG9391 full IgG (antibody)
chain 1: B3 chain 1 with E1Q, R28K, F29Y, I31V, D54R, R56D, T57S
chain 2: B1 chain 2 with S25A, Q26S, F27Y, L53I, Y55W, R57I, D68E, E92D, E93T
B7: P1AH1205 (antibody, V domains shown)
VH: KVQLVESGGGLVQPGGSLRLSCAASGFKWEHYAMSWVRQAPGKGLEWVGSISPRGDHKYYNTKFIDRFTISRDNDKNTLYLQMNSLRAEDTAVYYCARDWDYFDRWGQGTLVTVSS
VL: AIQMTQSPSSLSASVGDRVTITCQSQFWLSNYLAWYQQKPGKAPKLLIFDGDLPYERPSRFSGSGSHDEYTLTISSLQPEDFATYYCQQYREEPYTFGQGTKLEIK
B8: P1AH1199 (antibody, V domains shown)
VH: B7 VH with K1Q, W29Y, E30D, H31V, S50E, H57S, D75E, D101E, R105N
VL: B7 VL with S25A, Q26S, F27Y, L53I, Y55W, R57I, D68E, E92D, E93T
B9: P1AG9372 (antibody, V domains shown)
VH: EVQLVESGGGLVQPGGSLRLSCAASGFRFDIYAMSWVRQAPGKGLEWVGEISPDGRTKYYNTKFIDRFTISRDNEKNTLYLQMNSLRAEDTAVYYCARDWEYFDNWGQGTLVTVSS
VL: B7 VL
B10: P1AG9420 (antibody, V domains shown)
VH: B7 VH with K1R, K28R, W29Y, E30D, D56N, N74D, D75E, R105H
VL: B7 VL with S25A, Q26S, F27Y, L53I, R57I, D68E, E93T
B11: P1AG9391 (antibody, V domains shown)
VH: B9 VH with E1Q, R28K, F29Y, I31V, D54R, R56D, T57S
VL: B7 VL with S25A, Q26S, F27Y, L53I, Y55W, R57I, D68E, E92D, E93T
B12: P1AG9426 (antibody, V domains shown)
VH: B9 VH with E1Q, R28K, F29Y, I31V, D54R, R56D, T57S
VL: B7 VL with S25A, Q26S, F27Y, L53I, R57I, D68E, E93T
B13: P1AG9376 (antibody, V domains shown)
VH: B7 VH
VL: B7 VL

T1 sequence (P01024 23-1663, chain 1 of 2): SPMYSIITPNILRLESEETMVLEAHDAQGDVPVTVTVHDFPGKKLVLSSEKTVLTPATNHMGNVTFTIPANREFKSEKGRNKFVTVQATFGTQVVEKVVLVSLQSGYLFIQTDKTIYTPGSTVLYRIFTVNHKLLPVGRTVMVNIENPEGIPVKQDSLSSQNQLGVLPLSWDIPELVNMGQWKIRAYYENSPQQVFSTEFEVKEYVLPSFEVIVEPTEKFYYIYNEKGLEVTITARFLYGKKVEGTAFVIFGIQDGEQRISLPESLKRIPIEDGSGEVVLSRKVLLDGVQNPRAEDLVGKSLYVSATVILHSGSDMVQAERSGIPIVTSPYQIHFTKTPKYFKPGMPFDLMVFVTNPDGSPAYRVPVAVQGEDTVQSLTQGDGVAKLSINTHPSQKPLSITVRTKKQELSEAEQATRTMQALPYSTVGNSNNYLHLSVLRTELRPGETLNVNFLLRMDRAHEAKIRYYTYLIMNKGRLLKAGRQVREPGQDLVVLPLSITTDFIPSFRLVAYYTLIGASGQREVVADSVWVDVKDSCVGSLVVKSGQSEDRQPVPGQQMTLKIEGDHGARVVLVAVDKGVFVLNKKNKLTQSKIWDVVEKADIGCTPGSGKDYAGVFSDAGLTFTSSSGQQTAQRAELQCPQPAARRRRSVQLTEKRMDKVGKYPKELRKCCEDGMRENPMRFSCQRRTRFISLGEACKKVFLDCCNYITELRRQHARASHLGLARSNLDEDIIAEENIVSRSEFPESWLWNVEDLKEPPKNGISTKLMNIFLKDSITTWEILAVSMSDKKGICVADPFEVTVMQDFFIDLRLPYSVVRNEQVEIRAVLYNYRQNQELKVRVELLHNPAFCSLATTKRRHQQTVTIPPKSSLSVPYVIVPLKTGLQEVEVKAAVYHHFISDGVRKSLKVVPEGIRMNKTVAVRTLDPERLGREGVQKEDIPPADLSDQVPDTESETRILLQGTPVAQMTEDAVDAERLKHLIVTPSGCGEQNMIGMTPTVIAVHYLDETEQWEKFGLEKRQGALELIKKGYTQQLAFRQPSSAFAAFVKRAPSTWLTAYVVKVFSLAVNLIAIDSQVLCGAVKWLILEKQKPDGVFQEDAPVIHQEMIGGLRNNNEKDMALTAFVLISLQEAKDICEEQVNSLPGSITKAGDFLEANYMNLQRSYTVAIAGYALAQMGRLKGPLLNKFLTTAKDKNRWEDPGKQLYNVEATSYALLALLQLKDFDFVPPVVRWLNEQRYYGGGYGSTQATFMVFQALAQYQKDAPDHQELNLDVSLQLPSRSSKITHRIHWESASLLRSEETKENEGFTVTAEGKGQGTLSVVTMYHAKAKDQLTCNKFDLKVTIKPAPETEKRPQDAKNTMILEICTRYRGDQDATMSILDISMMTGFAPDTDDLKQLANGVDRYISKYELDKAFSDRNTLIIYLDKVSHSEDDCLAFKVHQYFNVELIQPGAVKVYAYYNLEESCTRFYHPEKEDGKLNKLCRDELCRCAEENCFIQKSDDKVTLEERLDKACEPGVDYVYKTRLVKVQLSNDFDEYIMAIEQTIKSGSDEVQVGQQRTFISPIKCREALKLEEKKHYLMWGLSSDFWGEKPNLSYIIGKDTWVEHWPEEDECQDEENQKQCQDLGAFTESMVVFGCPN
T1 sequence (P00751 260-764 D279G/K350N/M458I, chain 2 of 2, further chain): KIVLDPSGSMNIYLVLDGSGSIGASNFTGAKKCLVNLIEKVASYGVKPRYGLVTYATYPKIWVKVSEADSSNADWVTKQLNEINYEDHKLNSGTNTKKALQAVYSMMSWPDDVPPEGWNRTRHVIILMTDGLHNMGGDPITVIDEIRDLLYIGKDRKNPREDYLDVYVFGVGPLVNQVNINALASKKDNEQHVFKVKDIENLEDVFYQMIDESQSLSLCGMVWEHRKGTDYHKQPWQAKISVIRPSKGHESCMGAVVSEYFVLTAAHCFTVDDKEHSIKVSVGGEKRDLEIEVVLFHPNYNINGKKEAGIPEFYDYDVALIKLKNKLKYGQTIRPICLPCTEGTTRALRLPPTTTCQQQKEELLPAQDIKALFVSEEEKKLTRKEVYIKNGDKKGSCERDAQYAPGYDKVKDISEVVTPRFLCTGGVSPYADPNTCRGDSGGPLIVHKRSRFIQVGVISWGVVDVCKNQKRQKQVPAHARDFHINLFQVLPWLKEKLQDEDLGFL

For the first assay, the target named is scFcRn (human, UniProt P55899). As to the kind of experiment: SPR, pH 6.0, 25C.
Chain of scFcRn (P55899 24-297, chain 1 of 2): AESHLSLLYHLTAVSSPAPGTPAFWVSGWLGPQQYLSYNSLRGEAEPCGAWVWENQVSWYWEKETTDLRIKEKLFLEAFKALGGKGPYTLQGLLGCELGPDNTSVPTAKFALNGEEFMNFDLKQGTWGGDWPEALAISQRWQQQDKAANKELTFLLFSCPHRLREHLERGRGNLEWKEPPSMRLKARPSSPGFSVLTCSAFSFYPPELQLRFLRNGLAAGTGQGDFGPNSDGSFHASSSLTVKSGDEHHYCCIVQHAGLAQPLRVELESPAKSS
Chain of scFcRn (chain, as listed by the source, chain 2 of 2): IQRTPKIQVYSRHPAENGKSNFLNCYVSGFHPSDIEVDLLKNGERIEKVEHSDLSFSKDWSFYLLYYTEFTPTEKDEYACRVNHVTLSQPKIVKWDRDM
For B1, the binding result is on record as “no binding”. On the same count and under the same terms, the entry for B2 is “no binding”; for B3 it is “no binding”. The same measure, in the same setting: the entry for B4 is “no binding”; for B5 it is “no binding”; for B6 it is “no binding”.

The next assay has as its target T1, human C3bBb (Bb from FB D279G/K350N/M458I) (human). As to the kind of experiment: SPR, 37C.
As to B7, binding was characterised by a dissociation constant (Kd) of 0.095 nM. In the case of B8, the Kd turned out to be 0.2 nM.

As to B9, the dissociation constant Kd turned out to be 0.0116 nM. On the same count and under the same terms, in the case of B10 it was 0.011 nM; in that of B11, 0.0016 nM. As to B12, the Kd was 0.014 nM. The same measure, in the same setting: in the case of B13 it was below 0.001 nM.

Another assay has as its target T1, human C3bBb (Bb from FB …). Description: SPR, 25C.
Consider B7, for which the Kd turned out to be 0.016 nM. On the same count and under the same terms, in the case of B8 it was 0.03 nM; in that of B9, below 0.001 nM.

The molecule B10 displayed a Kd below 0.001 nM.

On to B11, for which the Kd was below 0.001 nM. Still for that read-out and setting: the figure for B12 is below 0.001 nM; for B13 it is below 0.001 nM.
